Key:
Experiment in all cases: holdup assay
Set-up in all cases: key: below the threshold = too weak to quantify, mostly under pKd 3.1 to 4
[1] = target: T1, PTPN13_1, Q12923
T1 sequence (Q12923 1088-1188, limits assumed, looked up): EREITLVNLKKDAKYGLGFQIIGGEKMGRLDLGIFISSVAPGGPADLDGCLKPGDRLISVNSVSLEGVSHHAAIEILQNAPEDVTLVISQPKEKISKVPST

[2] = target: T2, SIPA1L2, Q9P2F8
T2 sequence (Q9P2F8 945-1036, limits assumed, looked up): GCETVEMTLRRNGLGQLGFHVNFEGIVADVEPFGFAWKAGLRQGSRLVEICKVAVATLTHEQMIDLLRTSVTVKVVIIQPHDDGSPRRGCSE

[3] = target: FRMPD2_3, Q68DX3
Chain of FRMPD2_3, Q68DX3 (Q68DX3 1073-1166): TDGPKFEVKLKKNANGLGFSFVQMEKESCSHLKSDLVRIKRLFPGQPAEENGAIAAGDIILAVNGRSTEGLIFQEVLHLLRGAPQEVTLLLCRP

[4] = target: AHNAK1, Q09666
Chain of AHNAK1, Q09666 (Q09666 4-100): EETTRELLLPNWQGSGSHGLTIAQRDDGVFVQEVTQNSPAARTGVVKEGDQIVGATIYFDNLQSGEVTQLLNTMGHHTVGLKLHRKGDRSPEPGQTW

[5] = target: T3, ARHGAP21, Q5T5U3
T3 sequence (Q5T5U3 45-169, limits assumed, looked up): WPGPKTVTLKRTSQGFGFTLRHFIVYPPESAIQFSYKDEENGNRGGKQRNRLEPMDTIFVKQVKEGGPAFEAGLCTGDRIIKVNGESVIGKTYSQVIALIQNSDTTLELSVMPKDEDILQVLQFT

[6] = target: T4, HTRA4, P83105
T4 sequence (P83105 378-476, limits assumed, looked up): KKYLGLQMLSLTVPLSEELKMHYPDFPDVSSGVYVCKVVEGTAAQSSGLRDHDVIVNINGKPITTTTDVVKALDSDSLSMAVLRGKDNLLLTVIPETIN

[7] = target: GRIP2_7, Q9C0E4
Chain of GRIP2_7, Q9C0E4 (Q9C0E4 934-1023): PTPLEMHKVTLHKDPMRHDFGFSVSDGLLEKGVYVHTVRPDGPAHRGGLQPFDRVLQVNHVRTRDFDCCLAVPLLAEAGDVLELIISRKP

[8] = target: T5, MPP6, Q9NZW5
T5 sequence (Q9NZW5 125-219, limits assumed, looked up): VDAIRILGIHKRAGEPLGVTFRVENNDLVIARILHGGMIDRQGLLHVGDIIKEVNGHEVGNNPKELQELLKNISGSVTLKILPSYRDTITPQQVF

[9] = target: Inadl_2, Q8NI35
Chain of Inadl_2, Q8NI35 (Q8NI35 238-335): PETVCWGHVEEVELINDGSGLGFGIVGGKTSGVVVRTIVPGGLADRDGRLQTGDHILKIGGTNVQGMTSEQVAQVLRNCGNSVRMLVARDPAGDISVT

[10] = target: MAGI1_2, Q96QZ7
Chain of MAGI1_2, Q96QZ7 (Q96QZ7 456-580): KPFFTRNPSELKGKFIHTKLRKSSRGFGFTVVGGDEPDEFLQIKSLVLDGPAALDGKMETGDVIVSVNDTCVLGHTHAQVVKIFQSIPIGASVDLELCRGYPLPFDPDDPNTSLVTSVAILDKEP

[11] = target: LNX1_1, Q8TBB1
Chain of LNX1_1, Q8TBB1 (Q8TBB1 261-371): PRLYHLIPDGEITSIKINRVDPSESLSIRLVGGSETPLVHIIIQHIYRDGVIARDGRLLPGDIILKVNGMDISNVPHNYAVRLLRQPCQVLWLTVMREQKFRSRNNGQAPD

[12] = target: T6, RADIL, Q96JH8
T6 sequence (Q96JH8 971-1071, limits assumed, looked up): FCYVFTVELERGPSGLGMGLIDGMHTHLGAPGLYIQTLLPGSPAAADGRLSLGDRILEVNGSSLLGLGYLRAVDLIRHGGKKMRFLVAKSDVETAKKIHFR

[13] = target: T7, NHERF3_1, Q5T2W1
T7 sequence (Q5T2W1 4-100, limits assumed, looked up): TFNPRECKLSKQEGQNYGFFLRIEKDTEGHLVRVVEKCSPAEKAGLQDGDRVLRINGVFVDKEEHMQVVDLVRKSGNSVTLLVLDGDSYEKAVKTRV

[14] = target: TJP1_2, Q07157
Chain of TJP1_2, Q07157 (Q07157 181-274): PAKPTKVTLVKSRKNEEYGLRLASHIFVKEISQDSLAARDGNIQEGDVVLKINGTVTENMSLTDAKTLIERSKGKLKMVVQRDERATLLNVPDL

[15] = target: T8, PDZD7_3, Q9H5P4
T8 sequence (Q9H5P4 857-944, limits assumed, looked up): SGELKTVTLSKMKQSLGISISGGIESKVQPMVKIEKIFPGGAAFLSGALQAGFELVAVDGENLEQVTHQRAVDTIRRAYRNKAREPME

[16] = target: PTPN3, P26045
Chain of PTPN3, P26045 (P26045 505-587): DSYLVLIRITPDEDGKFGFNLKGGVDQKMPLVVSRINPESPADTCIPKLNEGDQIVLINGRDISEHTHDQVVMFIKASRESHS

[17] = target: T9, ARHGEF11, O15085
T9 sequence (O15085 42-136, limits assumed, looked up): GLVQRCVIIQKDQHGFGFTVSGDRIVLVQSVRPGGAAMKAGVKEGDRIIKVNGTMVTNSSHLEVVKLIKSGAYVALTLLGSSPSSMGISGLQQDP

[18] = target: Inadl_4, Q8NI35
Chain of Inadl_4, Q8NI35 (Q8NI35 547-651): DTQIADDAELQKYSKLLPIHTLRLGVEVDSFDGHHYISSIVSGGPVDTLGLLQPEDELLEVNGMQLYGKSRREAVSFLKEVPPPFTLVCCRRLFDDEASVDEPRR

[19] = target: MAGI3_2, Q5TCQ9
Chain of MAGI3_2, Q5TCQ9 (Q5TCQ9 398-503): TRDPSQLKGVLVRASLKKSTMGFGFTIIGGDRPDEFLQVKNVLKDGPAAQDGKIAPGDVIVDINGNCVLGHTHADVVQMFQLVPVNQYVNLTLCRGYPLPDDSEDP

[20] = target: GRID2IP_2, A4D2P6
Chain of GRID2IP_2, A4D2P6 (A4D2P6 272-370): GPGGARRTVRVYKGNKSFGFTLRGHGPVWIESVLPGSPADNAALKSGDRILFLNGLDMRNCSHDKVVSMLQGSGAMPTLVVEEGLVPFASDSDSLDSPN

[21] = target: DLG4_3, P78352
Chain of DLG4_3, P78352 (P78352 306-403): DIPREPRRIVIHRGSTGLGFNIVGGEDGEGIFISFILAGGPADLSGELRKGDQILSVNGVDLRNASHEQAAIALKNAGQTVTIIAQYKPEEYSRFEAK

[22] = target: T10, TX1BP3, O14907
T10 sequence (O14907 10-122, limits assumed, looked up): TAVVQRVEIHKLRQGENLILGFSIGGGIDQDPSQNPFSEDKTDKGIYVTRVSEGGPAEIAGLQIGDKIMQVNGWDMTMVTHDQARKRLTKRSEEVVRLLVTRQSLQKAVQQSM

[23] = target: T11, SNTG1, Q9NSN8
T11 sequence (Q9NSN8 52-150, limits assumed, looked up): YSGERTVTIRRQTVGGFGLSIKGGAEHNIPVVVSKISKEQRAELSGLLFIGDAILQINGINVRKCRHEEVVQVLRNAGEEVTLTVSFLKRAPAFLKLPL

[24] = target: IL16_1, Q14005
Chain of IL16_1, Q14005 (Q14005 210-306): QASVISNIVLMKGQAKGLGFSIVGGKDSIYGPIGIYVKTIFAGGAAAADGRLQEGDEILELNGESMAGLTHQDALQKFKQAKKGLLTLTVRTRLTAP

[25] = target: GRID2IP_1, A4D2P6
Chain of GRID2IP_1, A4D2P6 (A4D2P6 1-87): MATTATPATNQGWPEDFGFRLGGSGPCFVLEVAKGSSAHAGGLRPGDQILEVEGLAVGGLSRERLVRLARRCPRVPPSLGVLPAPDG

[26] = target: MAGI2_6, Q86UL8
Chain of MAGI2_6, Q86UL8 (Q86UL8 1141-1229): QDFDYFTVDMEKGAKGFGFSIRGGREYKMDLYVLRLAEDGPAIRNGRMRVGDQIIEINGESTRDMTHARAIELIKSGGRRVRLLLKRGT

[27] = plain residues with an end cap or a label only (N-terminal biotin on a linker: ttds)
[28] = plain residues with an end cap or a label only (N-terminal biotin on a linker: ahx)

Binder: IDNDTESTAL [ARHGAP17, Q68EM7]
- pKd [1, 27]: below the threshold
- pKd [2, 27]: below the threshold
- pKd [3, 27]: below the threshold
- pKd [4, 27]: below the threshold
- pKd [5, 27]: below the threshold
- pKd [6, 27]: below the threshold
- pKd [7, 27]: below the threshold
- pKd [8, 27]: below the threshold
- pKd [9, 27]: below the threshold
- pKd [10, 27]: below the threshold
- pKd [11, 27]: below the threshold
- pKd [12, 27]: below the threshold
- pKd [13, 27]: 5.25
- pKd [14, 27]: below the threshold
- pKd [15, 27]: 4.25
- pKd [16, 27]: 4.76
- pKd [17, 27]: 4.79
- pKd [18, 27]: below the threshold
- pKd [19, 27]: below the threshold
- pKd [20, 27]: 4.87
- pKd [21, 27]: below the threshold
- pKd [22, 27]: below the threshold
- pKd [23, 27]: below the threshold
- pKd [24, 27]: below the threshold
- pKd [25, 27]: below the threshold
- pKd [26, 27]: 3.79

Binder: GQDSREETQL [KCNT2, Q6UVM3]
- pKd [1, 27]: below the threshold
- pKd [2, 27]: below the threshold
- pKd [3, 27]: below the threshold
- pKd [4, 27]: below the threshold
- pKd [5, 27]: 3.68
- pKd [6, 27]: below the threshold
- pKd [7, 27]: below the threshold
- pKd [8, 27]: below the threshold
- pKd [9, 27]: below the threshold
- pKd [10, 27]: 4.5
- pKd [11, 27]: below the threshold
- pKd [12, 27]: below the threshold
- pKd [13, 27]: 5.47
- pKd [14, 27]: below the threshold
- pKd [15, 27]: 4.47
- pKd [16, 27]: 4.9
- pKd [17, 27]: 4.44
- pKd [18, 27]: below the threshold
- pKd [19, 27]: 3.91
- pKd [20, 27]: 4.52
- pKd [21, 27]: below the threshold
- pKd [22, 27]: 3.83
- pKd [23, 27]: 3.73
- pKd [24, 27]: below the threshold
- pKd [25, 27]: below the threshold
- pKd [26, 27]: below the threshold

Binder: STLTIFETAL [ABCC4, O15439]
- pKd [1, 27]: below the threshold
- pKd [2, 27]: below the threshold
- pKd [3, 27]: below the threshold
- pKd [4, 27]: below the threshold
- pKd [5, 27]: 4.53
- pKd [6, 27]: below the threshold
- pKd [7, 27]: below the threshold
- pKd [8, 27]: below the threshold
- pKd [9, 27]: below the threshold
- pKd [10, 27]: 3.86
- pKd [11, 27]: 3.59
- pKd [12, 27]: 3.56
- pKd [13, 27]: 6.21
- pKd [14, 27]: below the threshold
- pKd [15, 27]: 5.27
- pKd [16, 27]: 5.11
- pKd [17, 27]: 4.93
- pKd [18, 27]: below the threshold
- pKd [19, 27]: 4
- pKd [20, 27]: 4.36
- pKd [21, 27]: 3.85
- pKd [22, 27]: 5.11
- pKd [23, 27]: 4.89
- pKd [24, 27]: 3.5
- pKd [25, 27]: 3.48
- pKd [26, 27]: 4.53

Binder: VLRLQSETSV [VANGL1, Q8TAA9]
- pKd [1, 27]: below the threshold
- pKd [2, 27]: below the threshold
- pKd [3, 27]: below the threshold
- pKd [4, 27]: below the threshold
- pKd [5, 27]: below the threshold
- pKd [6, 27]: below the threshold
- pKd [7, 27]: below the threshold
- pKd [8, 27]: below the threshold
- pKd [9, 27]: below the threshold
- pKd [10, 27]: 4.37
- pKd [11, 27]: below the threshold
- pKd [12, 27]: below the threshold
- pKd [13, 27]: 3.98
- pKd [14, 27]: below the threshold
- pKd [15, 27]: below the threshold
- pKd [16, 27]: 4.97
- pKd [17, 27]: below the threshold
- pKd [18, 27]: below the threshold
- pKd [19, 27]: 5.14
- pKd [20, 27]: below the threshold
- pKd [21, 27]: 4.51
- pKd [22, 27]: 4.21
- pKd [23, 27]: 4.67
- pKd [24, 27]: 3.7
- pKd [25, 27]: below the threshold
- pKd [26, 27]: 4.05

Binder: TEAKLTETNA [MYO18A, Q92614]
- pKd [1, 28]: below the threshold
- pKd [2, 28]: below the threshold
- pKd [3, 28]: below the threshold
- pKd [4, 28]: below the threshold
- pKd [5, 28]: below the threshold
- pKd [6, 28]: below the threshold
- pKd [7, 28]: below the threshold
- pKd [8, 28]: below the threshold
- pKd [9, 28]: below the threshold
- pKd [10, 28]: below the threshold
- pKd [11, 28]: below the threshold
- pKd [12, 28]: below the threshold
- pKd [13, 28]: below the threshold
- pKd [14, 28]: below the threshold
- pKd [15, 28]: below the threshold
- pKd [16, 28]: below the threshold
- pKd [17, 28]: below the threshold
- pKd [18, 28]: below the threshold
- pKd [19, 28]: below the threshold
- pKd [20, 28]: below the threshold
- pKd [21, 28]: below the threshold
- pKd [22, 28]: below the threshold
- pKd [23, 28]: below the threshold
- pKd [24, 28]: below the threshold
- pKd [25, 28]: below the threshold
- pKd [26, 28]: below the threshold

Binder: QSARYRDTEL [TJP2, Q9UDY2]
- pKd [1, 27]: below the threshold
- pKd [2, 27]: below the threshold
- pKd [3, 27]: below the threshold
- pKd [4, 27]: 3.75
- pKd [5, 27]: 4.48
- pKd [6, 27]: below the threshold
- pKd [7, 27]: 3.49
- pKd [8, 27]: below the threshold
- pKd [9, 27]: below the threshold
- pKd [10, 27]: below the threshold
- pKd [11, 27]: 3.58
- pKd [12, 27]: below the threshold
- pKd [13, 27]: 4.33
- pKd [14, 27]: below the threshold
- pKd [15, 27]: 3.69
- pKd [16, 27]: 4.98
- pKd [17, 27]: 3.87
- pKd [18, 27]: below the threshold
- pKd [19, 27]: below the threshold
- pKd [20, 27]: below the threshold
- pKd [21, 27]: below the threshold
- pKd [22, 27]: 4.76
- pKd [23, 27]: 3.73
- pKd [24, 27]: below the threshold
- pKd [25, 27]: 3.59
- pKd [26, 27]: 4.36

Reference: paper PMC9482650, “Quantitative fragmentomics allow affinity mapping of interactomes” (Nature Communications, 2022)
